PMC10693918

Target: TniQ transposition protein of the type I-F3b CAST element Tn6900, His6-tagged
Test: cryo-EM structure

Question: For “TniQ transposition protein of the type I-F3b CAST element Tn6900, His6-tagged (natural protein)”, which stoichiometry N is on record?
Answer: 2
